Assays:
Details in all cases: modification not given
[1] = biological target: ACE2 (Homo sapiens), Q9BYF1; experiment: SPR
[2] = biological target: ACE2 (Homo sapiens), Q9BYF1; experiment: SPR; remark: listed apart in the source
[3] = biological target: ACE2 (Homo sapiens), Q9BYF1; experiment: SPR; remark: listed apart in the source
[4] = biological target: ACE2 (Homo sapiens), Q9BYF1; experiment: SPR; remark: listed apart in the source
[5] = biological target: ACE2 (Homo sapiens), Q9BYF1; experiment: NMR

Chain of ACE2 (Homo sapiens), Q9BYF1 (Q9BYF1 18-740): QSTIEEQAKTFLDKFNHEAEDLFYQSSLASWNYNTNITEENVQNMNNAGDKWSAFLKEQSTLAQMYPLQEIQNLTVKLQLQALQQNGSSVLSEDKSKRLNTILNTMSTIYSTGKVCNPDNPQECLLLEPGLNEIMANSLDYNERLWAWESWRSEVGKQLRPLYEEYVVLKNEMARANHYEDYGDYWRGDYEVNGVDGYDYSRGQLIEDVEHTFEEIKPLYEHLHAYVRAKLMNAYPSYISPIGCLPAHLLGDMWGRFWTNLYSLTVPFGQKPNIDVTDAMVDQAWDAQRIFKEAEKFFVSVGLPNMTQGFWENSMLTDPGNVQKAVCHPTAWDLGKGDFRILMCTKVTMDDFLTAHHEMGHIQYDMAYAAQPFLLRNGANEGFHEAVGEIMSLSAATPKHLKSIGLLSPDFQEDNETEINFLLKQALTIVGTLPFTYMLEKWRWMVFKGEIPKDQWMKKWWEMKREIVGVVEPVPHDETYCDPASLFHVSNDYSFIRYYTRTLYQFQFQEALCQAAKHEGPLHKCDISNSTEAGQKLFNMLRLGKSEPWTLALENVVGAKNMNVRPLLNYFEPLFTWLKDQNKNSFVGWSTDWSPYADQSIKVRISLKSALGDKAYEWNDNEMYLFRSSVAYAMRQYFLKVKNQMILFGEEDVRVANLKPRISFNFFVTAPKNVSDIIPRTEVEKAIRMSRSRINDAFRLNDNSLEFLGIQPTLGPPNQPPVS

For TTGIGYQPYRVV [RBD-15 peptide, P59594], the Kd [1] was 450 µM and the Kd [2] was 672 µM.

In the case of CYWPLNDYGFYT [RBD-14 peptide, P59594], the Kd [3] is reported as 450 µM and the Kd [1] is reported as 430 µM.

For YKYRYLRHGKLR [RBD-11 peptide, P59594], the Kd [1] was 67 µM and the Kd [4] was 85 µM.

Work on YKYRYL [RBD-11b peptide] yielded a Kd [1] of 46 µM and a Kd [5] of 60 µM.
